{"source": "patent US20260116987A1", "about": "(Gilead, published 2026)", "binders": {"B1": {"name": "7B16-L1.001 (CDR L1 swapped mutant of 7-B16) (antibody, V domains shown)", "VH": "EVQLVESGGGLVQPKGSLKLSCAASGFTFNTYAMNWVRQAPGKGLEWVARIRSKSNNYATYYADSVKDRFTISRDDSQSMLYLQMNNLKTEDTAMYYCVRGLLRYRFFDVWGAGTTVTVSS", "VL": "DIVMTQAEPSVPVTPGESISISCRSSQSLLHSNGYNYLDWFLQRPGQSPQLLIYRMSNLASGVPDRFSGSGSGTAFTLRISRVEAEDVGVYYCMQHLEYPFTFGGGTKLEIKR", "notes": "also called CDR swapped variant L1"}, "B2": {"name": "7B16-H3.001 (CDR H3 swapped mutant of 7-B16) (antibody, V domains shown)", "VH": "EVQLVESGGGLVQPKGSLKLSCAASGFTFNTYAMNWVRQAPGKGLEWVARIRSKSNNYATYYADSVKDRFTISRDDSQSMLYLQMNNLKTEDTAMYYCTRYYYYYGMDVWGAGTTVTVSS", "VL": "B1 VL with Q27K, Y35N, N36T, D39Y", "notes": "also called CDR swapped variant H3"}, "B3": {"name": "7-B16 (mouse hybridoma antibody) (antibody, mouse IgG1, kappa)", "heavy": "EVQLVESGGGLVQPKGSLKLSCAASGFTFNTYAMNWVRQAPGKGLEWVARIRSKSNNYATYYADSVKDRFTISRDDSQSMLYLQMNNLKTEDTAMYYCVRGLLRYRFFDVWGAGTTVTVSSAKTTPPSVYPLAPGSAAQTNSMVTLGCLVKGYFPEPVTVTWNSGSLSSGVHTFPAVLESDLYTLSSSVTVPSSPRPSETVTCNVAHPASSTKVDKKIVPRDCGCKPCICTVPEVSSVFIFPPKPKDVLTITLTPKVTCVVVDISKDDPEVQFSWFVDDVEVHTAQTQPREEQFNSTFRSVSELPIMHQDWLNGKEFKCRVNSAAFPAPIEKTISKTKGRPKAPQVYTIPPPKEQMAKDKVSLTCMITDFFPEDITVEWQWNGQPAENYKNTQPIMNTNGSYFVYSKLNVQKSNWEAGNTFTCSVLHEGLHNHHTEKSLSHSPG", "light": "DIVMTQAEPSVPVTPGESISISCRSSKSLLHSNGNTYLYWFLQRPGQSPQLLIYRMSNLASGVPDRFSGSGSGTAFTLRISRVEAEDVGVYYCMQHLEYPFTFGGGTKLEIKRADAAPTVSIFPPSSEQLTSGGASVVCFLNNFYPKDINVKWKIDGSERQNGVLNSWTDQDSKDSTYSMSSTLTLTKDEYERHNSYTCEATHKTSTSPIVKSFNRNEC"}}, "key": {"[1]": {"biological_target": "T1, CCR8-NT.MBP (CCR8 N-terminus peptide aa 1-35 fused with maltose binding protein)", "test": "ForteBio Octet, antibody captured on AHC biosensors, CCR8-NT.MBP as analyte"}, "[2]": {"biological_target": "T1, CCR8-NT.MBP (CCR8 N-terminus peptide aa …)", "test": "ForteBio Octet, antibody captured on AHC biosensors"}, "[3]": {"biological_target": "T2, Human CCR8 (C-C chemokine receptor type 8) expressed on CHO-S cells (human, UniProt P51685 1-355)", "T2 construct": "also called huCCR8; human CCR8-expressing CHO-S cells", "T2 sequence (P51685 whole entry)": "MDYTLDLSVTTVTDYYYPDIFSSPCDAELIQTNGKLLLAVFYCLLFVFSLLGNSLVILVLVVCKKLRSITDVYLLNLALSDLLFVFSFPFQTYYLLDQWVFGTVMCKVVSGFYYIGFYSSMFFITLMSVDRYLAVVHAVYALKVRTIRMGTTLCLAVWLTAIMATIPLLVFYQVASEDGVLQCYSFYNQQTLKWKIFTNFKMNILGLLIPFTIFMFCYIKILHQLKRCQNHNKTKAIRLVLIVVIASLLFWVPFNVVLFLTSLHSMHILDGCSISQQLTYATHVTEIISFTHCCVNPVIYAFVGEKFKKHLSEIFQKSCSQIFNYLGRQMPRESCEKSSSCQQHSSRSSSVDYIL", "test": "flow cytometry on CHO cells expressing CCR8, EC50 column", "description": "CCR8 binding was determined using flow cytometry according to the same methods used in Example 4, Briefly, antibodies were screened for specific binding to human CCR8 by flow cytometry using human CCR8-overexpressing and parental CHO—S cell line. Antibodies specifically binding to human CCR8 were also tested for binding to CCR4 by flow cytometry."}, "[4]": {"biological_target": "T3, Human CCR4 expressed on CHO-S cells (human, UniProt P51679 1-360)", "T3 construct": "whole, on cells; also called CCR4-expressing CHO-S cells", "T3 sequence (looked up)": "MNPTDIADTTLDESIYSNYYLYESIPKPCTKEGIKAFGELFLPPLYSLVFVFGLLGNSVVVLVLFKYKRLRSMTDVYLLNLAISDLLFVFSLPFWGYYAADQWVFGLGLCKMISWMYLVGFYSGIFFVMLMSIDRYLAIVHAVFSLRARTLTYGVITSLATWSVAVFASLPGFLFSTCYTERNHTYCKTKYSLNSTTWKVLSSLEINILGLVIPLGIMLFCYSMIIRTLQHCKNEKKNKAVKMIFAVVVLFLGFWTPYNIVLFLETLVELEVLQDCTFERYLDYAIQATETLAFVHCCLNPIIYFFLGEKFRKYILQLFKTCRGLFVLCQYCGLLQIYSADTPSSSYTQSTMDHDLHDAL", "test": "flow cytometry (PE-A), human CCR4-expressing CHO-S cells against parental CHO-S cells; antibody concentration not given"}, "[5]": {"biological_target": "T2, Human CCR8 (C-C chemokine receptor type …)", "test": "flow cytometry (PE-A), human CCR8-expressing CHO-S cells against parental CHO-S cells; antibody concentration not given"}}, "note": "Residue numbers refer to the chain shown, from its start."}
{"binder": "B1", "values": [{"measurement": "Octet Response (nm)", "setting": "[1]", "result": 0.0039, "unit": "nm"}, {"measurement": "binding result", "setting": "[2]", "result": "no binding (tested: 300 nM CCR8-NT.MBP)"}, {"measurement": "binding result", "setting": "[3]", "result": "no binding"}]}
{"binder": "B2", "values": [{"measurement": "Octet Response (nm)", "setting": "[1]", "result": 0.0093, "unit": "nm"}, {"measurement": "binding result", "setting": "[2]", "result": "no binding (tested: 300 nM CCR8-NT.MBP)"}, {"measurement": "binding result", "setting": "[3]", "result": "no binding"}]}
{"binder": "B3", "values": [{"measurement": "binding result", "setting": "[4]", "result": "no binding"}, {"measurement": "binding result", "setting": "[5]", "result": "binds"}]}
